Measured values as given in patent publication US20200031892A1, “COMPOSITION COMPRISING NEUREGULIN FOR ORGAN PERFUSION, PRESERVATION OR REPERFUSION, AND USE THEREOF” (Zensun (Shanghai) Science & Technology, Co., Ltd., priority 2007, published 2020).

Key:
[1] = tested on: patients with stable chronic heart failure; assay: Haemodynamics in patients with stable chronic heart failure after continuous intravenous infusion of neuregulin; format: in vivo, human; conditions: 0.2 μg/kg/hour i.v. infusion for 6 hours
Experimental: 6 patients with stable chronic heart failure were treated with continuous intravenous infusion of neuregulin at 0.2 μg/kg/hour (drug weight/body weight/hour) for 6 hours. A baseline right heart catheterisation was performed and Swan Ganz catheter left in situ to monitor haemodynamics for 24 hours.

[2] = tested on: cardiomyocytes from myocardial infarcted rats; assay: Relaxation of cardiomyocytes isolated from myocardial infarcted rats treated with neuregulin by osmotic pump; format: in vivo, rat; conditions: myocytes from MI rats treated with neuregulin compared with MI rats treated with vehicle
Experimental: Wistar male rats (Shanghai Animal Center of Chinese Academy of Science), which weighed 200±20 g, were anesthetized by intraperitoneally injecting 100 mg/kg (drug/body weight) of ketamine. The neck and chest were depilated and sanitized. An incision Was made in the middle front neck to expose the tracheae. An 18G catheter overneedle was inserted into the tracheae between the 3rd and 5th cartilage of tracheae. After the needle was drawn out, a plastic cannula was pushed into the trachea 1-2 cm and fixed to connect the Rodent Ventilator (SAR-830/P ventilator—Inspiratory flow rate, 1 ml/100 g/breath; Respiratory rate, 60 breaths/min). Another incision was made on the left front chest. The skin was blunt dissected to expose the fourth and fifth rib, then the fourth rib was cut by elbowed mosquito forceps. The ventilator (as described above) was linked to the cannula and turned on, and the heart was exposed to check the status of lung and heart. The pericardium was rived off to identify the left atria and the pulmonary arterious cone after the heart was exteriorized through the incision. The left ventricle anterior descending coronary artery between them was ligated tight with 6/0 medical suture before the heart was replaced into the thorax. The thoracic wall was stitched. The ventilator was blocked to full fill the lung. […]

B1: NRG: NRG having the sequence of SEQ ID NO:1, which corresponds to amino acids 177-237 of human NRG-1 (protein, listed as Homo sapiens)
chain: SHLVKCAEKEKTFCVNGGECFMVKDLSNPSRYLCKCPNEFTGDRCQNYVMASFYKAEELYQ
[1]; 2 hours after infusion vs baseline 3.7±1.0 L/min
  increase of average cardiac output: 29.7%
[1]; after infusion (baseline 1679.3±336.3)
  systemic vascular resistance (SVR): 1199.5±127.6 dynes-sec-cm^−5
[1]; at 2 hours after infusion (baseline 3.7±1.0)
  average cardiac output: 4.8 ± 0.8 L/min
[1]; vs baseline 1679.3±336.3
  fall of systemic vascular resistance (SVR): 29%
[2]
  relaxation of myocytes (time to relax to half of the maximum length, FIG. 1): relax much faster
